Experimental data reported in the supplement of paper PMC10126150.
± gives the standard deviation of the averaged measurements.

System: ATP
Experiment: switch fluorescence ratio, 500 uM ATP over buffer (Cy3 cluster intensity, sum of 5 cycles each) (fold (ratio)); higher = stronger signal-on switching upon ATP binding; sequences stand for … in TCGTCGGCAGCGTCAGATGTGTATAAGAGACAGTTTTTTTTTTTTTTTTTTTTTTTTT…TC
Details: aptamer strand: ATP DNA aptamer (quencher-CACCTGGGGGAGTATTGCGGAGGAAGG + anchor), 100 nM annealed; ATP concentration: 500 uM
Outline: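 Exposure to 500 uM ATP lasted 15 min at 22 °C before imaging, and a selection-buffer image was taken beforehand, for Cy3-labelled switching-strand clusters on a modified Illumina MiSeq flow-cell annealed to 100 nM quencher-labelled ATP aptamer. Five buffer/ATP cycles were run with NaOH stripping and re-annealing between them. The fluorescence ratio per cluster is summed target-cycle over summed buffer-cycle Cy3 intensity, averaged per switch-domain sequence. Clusters outside 100-1000 RFU were excluded.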

Row | Sequence | switch fluorescence ratio
1 | GTTTAAGGGC | 0.988 ± 0.032
2 | CCGAGATCTT | 1.03 ± 0.032
3 | GTGGCTTGTG | 1 ± 0.029
4 | ATTAGATGAC | 1.02 ± 0.016
5 | TTGGCAGGGA | 0.998 ± 0.018
6 | AGTAAATCCT | 1.16 ± 0.0084
7 | CATAGGGCCA | 1 ± 0.012
8 | CTTATGATAG | 0.97 ± 0.013
9 | CAGAGGAGGT | 0.982 ± 0.017
10 | TTAGAAGGGA | 1.01 ± 0.056
11 | TGGGGAAGTT | 1 ± 0.034
12 | ACTATGGATG | 1.02 ± 0.036
13 | CGGGTATGGT | 1 ± 0.027
14 | GGGAGTCTTG | 0.987 ± 0.015
15 | TATACGGTTT | 1.03 ± 0.083
16 | AGTGCCTATG | 0.994 ± 0.019
17 | TTTTGCGCTC | 1 ± 0.027
18 | TAGAGGGGGC | 0.987 ± 0.025
19 | AGCCGTTTTT | 0.973 ± 0.038
20 | GCCTTCCCGG | 1.9 ± 0.08
21 | TGAGGCACGG | 1.05 ± 0.056
22 | TGCTACAGGA | 1.02 ± 0.0049
23 | TGAGGGGAAT | 1 ± 0.012

Row | Sequence | switch fluorescence ratio
24 | GGGGGTGTAA | 0.986 ± 0.018
25 | GCCTCTATTT | 0.968 ± 0.019
26 | GGGAGCCTAT | 1 ± 0.042
27 | ATCGCAGATT | 1.03 ± 0.019
28 | TGTTATAATG | 1.03 ± 0.068
29 | TTTCGCCGTT | 1.003 ± 0.0055
30 | CCAATGGGGG | 0.982 ± 0.04
31 | TTAGGAGAAA | 1.03 ± 0.053
32 | GCTTACAGGA | 1.01 ± 0.033
33 | AAGATGTAGC | 1.006 ± 0.0053
34 | CTAGGTAAAC | 1.06 ± 0.012
35 | CCACTAGTCG | 1.02 ± 0.016
36 | ATATAATACG | 1.01 ± 0.024
37 | CGTTGATAAG | 0.997 ± 0.022
38 | AGGAGGCCAG | 0.969 ± 0.05
39 | TAGCTTTTTT | 1.002 ± 0.0045
40 | ATCAGGGTAT | 1.07 ± 0.089
41 | TCGGATGAGG | 1 ± 0.042
42 | CAATAAAACA | 0.972 ± 0.013
43 | CACCCGGCGC | 1.17 ± 0.13
44 | GCTATGAACC | 1.0349 ± 0.0008
45 | CGTGGCTAAG | 0.971 ± 0.046
46 | TTATAAGCTT | 0.997 ± 0.021

Row | Sequence | switch fluorescence ratio
47 | GGGTGAAATT | 0.986 ± 0.035
48 | TTTTCACCGT | 1.06 ± 0.027
49 | GCATGGGCAG | 0.999 ± 0.023
50 | CAGAGGGGTC | 0.999 ± 0.022
51 | TTGCTGGAAG | 0.978 ± 0.035
52 | TCTAGTTTAT | 0.987 ± 0.033
53 | TTTAGGGTTT | 1.06 ± 0.19
54 | TTGGGGGAGG | 0.989 ± 0.021
55 | TTTGCAATTG | 1.13 ± 0.062
56 | AAAGAAGGGG | 0.995 ± 0.015
57 | CCAGTAAATT | 0.993 ± 0.046
58 | TAGCGGTTGT | 0.999 ± 0.021
59 | GAGATCTAGT | 1.01 ± 0.019
60 | ACGACTTTTT | 1.03 ± 0.063
61 | GGGCATGCAG | 0.966 ± 0.018
62 | GTCTGTTCGC | 1.02 ± 0.085
63 | ATCATACTGT | 1.007 ± 0.0024
64 | CGTACGGCTC | 1.058 ± 0.0038
65 | AGGACGGGGA | 0.99 ± 0.019
66 | GATCCACGGT | 1.03 ± 0.027
67 | TTGATTTGCA | 0.99989 ± 0.00088
68 | GCGGGGGTCT | 1.03 ± 0.1
69 | TTTTTTGATA | 0.981 ± 0.022

Row | Sequence | switch fluorescence ratio
70 | TTTACCGCTA | 1.94 ± 0.58
71 | GACCCTAAC | 1.14 ± 0.016
72 | CACTGATGCC | 1.04 ± 0.019
73 | TTAAGGGCAA | 1.06 ± 0.013
74 | GGGTTGGTGG | 0.992 ± 0.029
75 | AGTGACGGTT | 0.977 ± 0.021
76 | TGTTGTCTTG | 0.98616 ± 6.6e-05
77 | TTGCAAGAGG | 1.02 ± 0.024
78 | CATAGCTGTG | 1.01 ± 0.026
79 | GGTCGGCCGG | 1.0178 ± 0.00045
80 | TTATCTGGAA | 1.06 ± 0.055
81 | TGTGCAGAAA | 0.9899 ± 0.0059
82 | ATACGAGATT | 1.009 ± 0.0079
83 | TATTGGTTCG | 1.03 ± 0.027
84 | ACAGGCGCTT | 1.01 ± 0.013
85 | TAGAAGTCTG | 1.06 ± 0.012
86 | TAGTAGTCGG | 0.963 ± 0.036
87 | TTTTGACGCT | 0.977 ± 0.012
88 | AGTTAAAGAG | 1.01 ± 0.021
89 | TGGGGTGCCA | 0.9795 ± 0.0071
90 | GTTCGGTATG | 0.984 ± 0.033
91 | AAAAATAATT | 0.983 ± 0.028
92 | AGAGCGTTGT | 0.977 ± 0.023

Row | Sequence | switch fluorescence ratio
93 | TTAAAGGTAA | 1.018 ± 0.0094
94 | GTCGGAGGGG | 0.982 ± 0.043
95 | CTATACTTGG | 0.98716 ± 0.00098
96 | TATAACGTTA | 0.993 ± 0.015
97 | AAGGGCGGGA | 1.02 ± 0.086
98 | CGCCCGCTGT | 1.72 ± 0.65
99 | ACCTTCGTTG | 1.22 ± 0.003
100 | TCGAAAAGGG | 0.992 ± 0.015
101 | CGAGCCCTTA | 0.986 ± 0.059
102 | ACTCATATAT | 1.02 ± 0.0045
103 | ACATTCAGTA | 0.991 ± 0.014
104 | CCAAGGCTTA | 1.06 ± 0.063
105 | TCACGTTAAT | 1.2 ± 0.058
106 | AACATTAGGC | 1.05 ± 0.039
107 | GGCGGCCGGA | 1.002 ± 0.0084
108 | GGATTGTGAG | 0.987 ± 0.042
109 | CCTGTAAAGA | 1.02 ± 0.019
110 | ACCGGCGGTT | 1.01 ± 0.032
111 | TTAAGATCAT | 0.969 ± 0.041
112 | GCAGCCGTGT | 1.03 ± 0.04
113 | AGATCGACGG | 1.014 ± 0.0095
114 | CAGGGAGCTT | 1.01 ± 0.03
115 | CAAAGAGGCG | 1.02 ± 0.057

Row | Sequence | switch fluorescence ratio
116 | TAACTATATA | 1.06 ± 0.014
117 | AGGCTCATTG | 1.01 ± 0.033
118 | TACTATTTTT | 1 ± 0.018
119 | TCAATGGGTA | 0.991 ± 0.021
120 | ATGATGACGA | 1.06 ± 0.11
121 | AATCAATTGT | 0.978 ± 0.053
122 | GGGGGGCCCT | 0.996 ± 0.028
123 | TGAGAAATGG | 1.02 ± 0.036
124 | ATAGAGGAGG | 1 ± 0.021
125 | TACAAATGTT | 1 ± 0.018
126 | GGGAAAGTGG | 1.012 ± 0.008
127 | GGGCGCCCCA | 0.976 ± 0.013
128 | GGTGAGGATG | 0.994 ± 0.018
129 | CTCGCCAGGG | 1.41 ± 0.032
130 | ATGATGGTTC | 1.01 ± 0.012
131 | GGAAATGAGT | 1.02 ± 0.016
132 | GAGAACGGTT | 1.03 ± 0.052
133 | TATTCTAATT | 1.004 ± 0.006
134 | ATTTTAATAA | 0.99 ± 0.017
135 | GGGCTGGATG | 0.9932 ± 0.0047
136 | CGGGTTCGAG | 0.959 ± 0.001
137 | GCGTCTATTG | 0.9987 ± 0.0051
138 | TGGTTGGTC | 0.965 ± 0.039

Row | Sequence | switch fluorescence ratio
139 | TGTTTGACAT | 0.98 ± 0.02
140 | TGGGACGGGT | 0.968 ± 0.052
141 | GGTAGCAGGG | 1.014 ± 0.0097
142 | ACGGGGTCAG | 0.999 ± 0.026
143 | TGATGTTTTT | 1.01 ± 0.024
144 | AAGTTTCGCG | 0.976 ± 0.027
145 | AGTCGCGGAG | 1 ± 0.08
146 | GAGAGTGGCA | 0.988 ± 0.031
147 | TTTACCCTCC | 1.21 ± 0.13
148 | TGAGGGCGAA | 0.984 ± 0.01
149 | GGGCTCCATG | 0.9825 ± 0.0044
150 | ATTGAACGGA | 1 ± 0.059
151 | GAGTCGGTGT | 1.026 ± 0.0063
152 | CCCACCGTTG | 1.17 ± 0.03
153 | TATGTCTCTC | 0.97458 ± 0.00069
154 | AGGGTAAACG | 0.986 ± 0.024
155 | CTTGTTTGGG | 1 ± 0.039
156 | GTTGCAGTTC | 1.01 ± 0.034
157 | CTTGTTGGGT | 0.999 ± 0.033
